# T1: human p75^NTR death domain (330–427) (human), P08138
# T1 chain: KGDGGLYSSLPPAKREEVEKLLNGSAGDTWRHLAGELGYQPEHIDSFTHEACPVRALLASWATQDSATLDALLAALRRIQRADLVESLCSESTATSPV
# T2: human RhoGDI (2–204) (human, UniProt P52565 2-204)
# T2 construct: 15N- or 13C,15N-labelled in some NMR samples; source: E. coli SoluBL21 (DE3), purified (Ni-NTA, gel filtration Superdex 75 and/or ion exchange)
# T2 sequence (looked up): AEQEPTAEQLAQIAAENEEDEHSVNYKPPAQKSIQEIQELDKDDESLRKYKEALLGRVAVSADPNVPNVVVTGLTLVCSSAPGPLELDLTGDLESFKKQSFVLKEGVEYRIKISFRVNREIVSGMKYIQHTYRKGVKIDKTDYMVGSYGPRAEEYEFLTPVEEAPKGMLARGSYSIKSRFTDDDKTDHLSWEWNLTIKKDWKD
# T3: p75^NTR DD tagged with EGFP(A206K) in its C-terminus (human)
# T3 chain: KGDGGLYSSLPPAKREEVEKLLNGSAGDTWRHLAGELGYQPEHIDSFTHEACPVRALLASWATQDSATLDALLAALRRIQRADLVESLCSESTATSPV
# How the values were obtained:
# [1] = target: human p75^NTR death domain (330–427) (human) (UniProt P08138); assay: SPR; p75NTR DD-His captured on NTA sensor chip via Ni2+; BIAcore T200, 22°C; 10 mM HEPES, 50 mM NaCl, 0.005% Surfactant P20, 0.02% BSA, pH 7.0; kinetic analysis, one binding site model
# RhoA (Homo sapiens) = RhoA (Homo sapiens) (UniProt P61586); settings: cited from earlier work
# RhoA (Homo sapiens), sequence (P61586 1-190): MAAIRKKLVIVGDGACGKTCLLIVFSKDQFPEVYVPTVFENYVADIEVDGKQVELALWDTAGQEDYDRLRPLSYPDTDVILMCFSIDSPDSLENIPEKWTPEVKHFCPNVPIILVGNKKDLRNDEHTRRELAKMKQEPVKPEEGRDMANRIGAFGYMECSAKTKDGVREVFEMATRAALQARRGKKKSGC
# [2] = target: T1, human p75^NTR death domain (330–427) …; assay: dynamic light scattering; p75NTR DD ~0.2 mM in phosphate buffer, pH 7.0, 22°C; apparent hydrodynamic radius; settings: remark: other sources report otherwise
# [3] = target: T4, human RIP2 CARD (434–539) (human, UniProt O43353 434-539); assay: SPR; p75NTR DD-His captured on NTA sensor chip via Ni2+; BIAcore T200, 22°C; 10 mM HEPES, 50 mM NaCl, 0.005% Surfactant P20, 0.02% BSA, pH 7.0; kinetic analysis, one binding site model; settings: both partners purified
# T4 construct: RIP2 kinase, human, caspase recruitment domain with C-terminal tail, residues 434-539; The results speak of a C-terminal tail Leu524-Met540 and of 107 amino acids, the methods of residues 434-539; also called RIP2 CARD (including C-terminal tail); source: E. coli SoluBL21 (DE3), purified (Ni-NTA, gel filtration Superdex 75 and/or ion exchange)
# T4 sequence (O43353 434-539): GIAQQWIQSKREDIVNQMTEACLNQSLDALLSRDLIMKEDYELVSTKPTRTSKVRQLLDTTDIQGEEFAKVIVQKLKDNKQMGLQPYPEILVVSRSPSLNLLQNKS
# human RhoGDI (2–204) = target: T2, human RhoGDI (2–204); assay: as above; settings: both partners purified
# [4] = target: T3, p75^NTR DD tagged with EGFP(A206K) in …; assay: FRET or BRET; homo-FRET fluorescence anisotropy of p75NTR DD-EGFP diluted serially in 50 mM phosphate buffer pH 7.0, room temperature; fit to a monomer-dimer equilibrium; apparent; dimer to monomers; settings: remark: other sources report otherwise
molecule,measurement,setting,value
RIP2 CARD ΔC mutant lacking the C-terminal tail (domain or fragment),Kd,[1],0.0587 µM
RhoGDI (from UniProt P52565),Kd,RhoA (Homo sapiens),0.17 µM
"human p75^NTR death domain (330–427), P08138 330-427 (domain or fragment) KGDGGLYSSLPPAKREEVEKLLNGSAGDTWRHLAGELGYQPEHIDSFTHEACPVRALLASWATQDSATLDALLAALRRIQRADLVESLCSESTATSPV",stoichiometry N,[2],2
"human p75^NTR death domain (330–427) (domain or fragment, UniProt P08138 330-427, looked up, p75 neurotrophin receptor (NGFR, TNFRSF16), human, death domain, residues 330-427; 15N- or 13C,15N-labelled in some NMR samples; Monomer or dimer depending on the buffer; also called p75^NTR DD; DD; source: E. coli SoluBL21 (DE3), purified (Ni-NTA, gel filtration Superdex 75 and/or ion exchange)) KGDGGLYSSLPPAKREEVEKLLNGSAGDTWRHLAGELGYQPEHIDSFTHEACPVRALLASWATQDSATLDALLAALRRIQRADLVESLCSESTATSPV",Kd,[3],0.00467 ± 0.0007 µM
same,koff,[3],0.00332 s⁻¹
same,kon,[3],720000 ± 340000 M⁻¹ s⁻¹
same,Kd,human RhoGDI (2–204),0.827 ± 0.338 µM
same,koff,human RhoGDI (2–204),0.05 s⁻¹
same,kon,human RhoGDI (2–204),60000 ± 10000 M⁻¹ s⁻¹
"p75^NTR DD tagged with EGFP(A206K) in its C-terminus (domain or fragment, here or on the partner: C-terminal EGFP(A206K) carrier left out; limits of this fusion are not given, so the paper's own DD construct (330-427) is used / C-terminal EGFP(A206K) carrier left out; limits of this fusion are n) KGDGGLYSSLPPAKREEVEKLLNGSAGDTWRHLAGELGYQPEHIDSFTHEACPVRALLASWATQDSATLDALLAALRRIQRADLVESLCSESTATSPV",Kd,[4],49 µM

# From article PMC4739766 (eLife, 2015)
